The results in this text go back to patent US7317096 (LEADD B V, dated 2008).

The data set deals with the molecule itself. The data set can be described thus: size exclusion chromatography (Superose 6 HR 10/30). In general terms: SEC sorts molecules by how far they enter the pores of the column.

B1: MBP-AAP-1 fusion protein (pMAL-AAP-1) (other, not shown: large carriers)
chain: MTMGDKKSPTRPKRQAKPAADEGFWDCSVCTFRNSAEAFKCSICDVRKGTSTRKPRINSQLVAQQVAQQYATPPPPKKEKKEKVEKQDKEKPEKDKEISPSVTKKNTNKKTKPKSDILKDPPSEANSIQSANATTKTSETNHTSRPRLKNVDRSTAQQLAVTVGNVTVIITDFKEKTRSSSTSSSTVTSSAGSEQQNQSSSGSESTDKGSSRSSTPKGDMSAVNDESF
notes: Produced in E. coli, 90 to 95% pure; Printed as 'a Homotrimer or Homo-tetramer'; also called MBP-AAPI
For the protein B1, the binding result is on record as “binds”.
